{
  "source": "patent US11708423B2",
  "about": "“Chimeric engulfment receptor molecules and methods of use” (CERO THERAPEUTICS, INC., priority 2017, dated 2023)",
  "molecules": {"B1": {"name": "CER21−HPV16 E7 TCR: tandem expression cassette: CER21, T2A peptide, HPV16 E7 specific TCR; SEQ ID NO:166 (protein)", "chain": "MSKGLLLLWLVTELWWLYLTPAASEDTIIGFLGQPVTLPCHYLSWSQSRNSMCWGKGSCPNSKCNAELLRTDGTRIISRKSTKYTLLGKVQFGEVSLTISNTNRGDSGVYCCRIEVPGWFNDVKKNVRLELRRATTTKKPTTTTRPTTTPYVTTTTPELLPTTVMTTSVLPTTTPPQTLATTAFSTAVTTCPSTTPGSFSQETTKGSAFTTESETLPASNHSQRSMMTISTDIAVLRPTGSNPGILPSTSQLTTQKTTLTTSESLQKTTKSHQINSRQTILIIACCVGFVLMVLLFLAFLHHLFYWDVWFIYNVCLAKVKGYRSLSTSQTFYDAYISYDTKDASVTDWVINELRYHLEESRDKNVLLCLEERDWDPGLAIIDNLMQSINQSKKTVFVLTKKYAKSWNFKTAFYLALQRLMDENMDVIIFILLEPVLQHSQYLRLRQRICKSSILQWPDNPKAEGLFWQTLRNVVLTENDSRYNNMYVDSIKQYLEGGGEGRGSLLTCGDVEENPGPMAPGLLCWALLCLLGAGLVDAGVTQSPTHLIKTRGQQVTLRCSPKSGHDTVSWYQQALGQGPQFIFQYYEEEERQRGNFPDRFSGHQFPNYSSELNVNALLLGDSALYLCASSLGWRGGRYNEQFFGPGTRLTVLEDLRNVTPPKVSLFEPSKAEIANKQKATLVCLARGFFPDHVELSWWVNGKEVHSGVCTDPQAYKESNYSYCLSSRLRVSATFWHNPRNHFRCQVQFHGLSEEDKWPEGSPKPVTQNISAEAWGRADCGITSASYQQGVLSATILYEILLGKATLYAVLVSTLVVMAMVKRKNSRAKRSGSGATNFSLLKQAGDVEENPGPMWGVFLLYVSMKMGGTTGQNIDQPTEMTATEGAIVQINCTYQTSGFNGLFWYQQHAGEAPTFLSYNVLDGLEEKGRFSSFLSRSKGYSYLLLKELQMKDSASYLCASVDGNNRLAFGKGNQVVVIPNIQNPEPAVYQLKDPRSQDSTLCLFTDFDSQINVPKTMESGTFITDKCVLDMKAMDSKSNGAIAWSNQTSFTCQDIFKETNATYPSSDVPCDATLTEKSFETDMNLNFQNLLVIVLRILLLKVAGFNLLMTLRLWSS", "modifications": "CER21_T2A_HPV16_E7_TCR tandem cassette"}},
  "key": {"SCC152 cells [1]": {"tested_on": "SCC152 cells", "experiment": "Cytokine response of tandem cassette transduced CD8+ T cells", "assay_type": "cell-based, human", "settings": "CD8+ T cells co-cultured with SCC152 cells"}, "SCC152 cells [2]": {"tested_on": "SCC152 cells", "procedure": "Peripheral blood was collected by venipuncture from a human donor, and human peripheral blood mononuclear cells (PBMCs) were isolated by density gradient centrifugation using lymphocyte separation media. CD8+ T cells were enriched from PBMCs using a commercially available isolation kit and activated with anti-CD3 and anti-CD28 in Complete Cell Growth Media. 50 μl of viral vector expressing the CER-HPV16 E7 TCR combination were diluted in 0.5 ml Complete Cell Growth Media and added to the CD8+ T cells. The transduced T cells were then centrifuged at 270×g rpm for 1 hour in a 32° C. pre-warmed centrifuge. The T cells were incubated for 24 hours at 37° C. T cells were expanded for another 72 hours in Complete Cell Growth Media, de-beaded, and allowed to expand x 5 days prior to being utilized for functional assays.\nCytotoxic activity of tandem expression cassette transduced CD8+ T cells was detected using a caspase 3/7 apoptosis reagent (IncuCyte®) that couples the activated caspase 3/7 recognition motif with a red reagent that fluoresces upon cleavage. The fluorescent signal was measured using fluorescent microscopy. […] The caspase 3/7 apoptosis reagent was added to the co-culture, and cytotoxic activity was measured over time by measuring fluorescence (see, FIG. 40). […]"}, "SCC152 cells [3]": {"tested_on": "SCC152 cells", "experiment": "Phagocytic activity of tandem expression cassette transduced CD8+ T cells", "assay_type": "cell-based, human", "description": "Phagocytic activity of tandem expression cassette transduced CD8+ T cells was detected by co-culturing tandem expression cassette transduced CD8+ T cells with SCC152 cells for 6 hours at a 1:1 ratio. Phagocytic events were visualized and quantified using KEYENCE BZ-X710 fluorescence microscope, 20X objective and hybrid capture software."}, "[4]": {"experiment": "Engulfment of phosphatidylserine coated latex beads", "assay_type": "cell-based"}},
  "data": [
    {"molecule": "B1", "values": [
      {"measurement": "antigen specific effector function (IFNγ response)", "setting": "SCC152 cells [1]", "result": "exhibit antigen specific effector function as measured by IFNγ response"},
      {"measurement": "cytotoxic activity toward SCC152 cells (caspase 3/7)", "setting": "SCC152 cells [2]; CD8+ T cells, 1:1 ratio", "result": "exhibit cytotoxic activity toward SCC152 cells"},
      {"measurement": "cytotoxic response relative to CD8+ T cells comprising HPV16 E7 TCR alone", "setting": "SCC152 cells [2]; by 6 hours", "result": "exponentially higher"},
      {"measurement": "phagocytosis of SCC152 cells", "setting": "SCC152 cells [3]; CD8+ T cells, 6 hours, 1:1 ratio", "result": "capable of phagocytosing SCC152 cells"},
      {"measurement": "dependence of engulfment of SCC152 cells on Racl", "setting": "SCC152 cells [3]; Racl inhibitor NSC23766 (50 μM), data not shown", "result": "Racl-dependent manner"},
      {"measurement": "incubation time after which phosphatidylserine coated beads could be visualized inside the T cells", "setting": "[4]", "result": "about 30 minutes"},
      {"measurement": "engulfment of phosphatidylserine coated beads", "setting": "[4]; CD8+ T cells, data not shown", "result": "engulfed streptavidin coated latex beads"}
    ]}
  ]
}
